Here are results for eleven variants from IntAct's records for PubMed 31515488.

B1: Cyclin-dependent kinase 4 (Homo sapiens), P11802 (parent)
chain: MATSRYEPVAEIGVGAYGTVYKARDPHSGHFVALKSVRVPNGGGGGGGLPISTVREVALLRRLEAFEHPNVVRLMDVCATSRTDREIKVTLVFEHVDQDLRTYLDKAPPPGLPAETIKDLMRQFLRGLDFLHANCIVHRDLKPENILVTSGGTVKLADFGLARIYSYQMALTPVVVTLWYRAPEVLLQSTYATPVDMWSVGCIFAEMFRRKPLFCGNSEADQLGKIFDLIGLPPEDDWPRDVSLPRGAFPPRGPRPVQSVVPEMEESGAQLLLEMLTFNPHKRISAFRALQHSYLHKDEGNPE
partner: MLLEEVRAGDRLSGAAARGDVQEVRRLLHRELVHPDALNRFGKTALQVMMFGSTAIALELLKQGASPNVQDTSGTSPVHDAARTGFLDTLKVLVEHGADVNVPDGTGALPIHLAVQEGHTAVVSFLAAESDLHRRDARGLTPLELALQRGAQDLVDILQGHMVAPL
B2: Isoform 1 of Segment polarity protein dishevelled homolog DVL-3 (Homo sapiens), Q92997-1 (parent)
chain: MGETKIIYHLDGQETPYLVKLPLPAERVTLADFKGVLQRPSYKFFFKSMDDDFGVVKEEISDDNAKLPCFNGRVVSWLVSAEGSHPDPAPFCADNPSELPPPMERTGGIGDSRPPSFHPHAGGGSQENLDNDTETDSLVSAQRERPRRRDGPEHATRLNGTAKGERRREPGGYDSSSTLMSSELETTSFFDSDEDDSTSRFSSSTEQSSASRLMRRHKRRRRKQKVSRIERSSSFSSITDSTMSLNIITVTLNMEKYNFLGISIVGQSNERGDGGIYIGSIMKGGAVAADGRIEPGDMLLQVNEINFENMSNDDAVRVLREIVHKPGPITLTVAKCWDPSPRGCFTLPRSEPIRPIDPAAWVSHTAAMTGTFPAYGMSPSLSTITSTSSSITSSIPDTERLDDFHLSIHSDMAAIVKAMASPESGLEVRDRMWLKITIPNAFIGSDVVDWLYHNVEGFTDRREARKYASNLLKAGFIRHTVNKITFSEQCYYIFGDLCGNMANLSLHDHDGSSGASDQDTLAPLPHPGAAPWPMAFPYQYPPPPHPYNPHPGFPELGYSYGGGSASSQHSEGSRSSGSNRSGSDRRKEKDPKAGDSKSGGSGSESDHTTRSSLRGPRERAPSERSGPAASEHSHRSHHSLASSLRSHHTHPSYGPPGVPPLYGPPMLMMPPPPAAMGPPGAPPGRDLASVPPELTASRQSFRMAMGNPSEFFVDVM
B3: BRCA1-A complex subunit RAP80 (Homo sapiens), Q96RL1-2 (parent)
chain: MPRRKKKVKEVSESRNLEKKDVETTSSVSVKRKRRLEDAFIVISDSDGEEPKEENGLQKTKTKQSNRAKCLAKRKIAQMTEEEQFALALKMSEQEAREVNSQEEEEEELLRKAIAESLNSCRPSDASATRSRPLATGPSSQSHQEKTTDSGLTEGIWQLVPPSLFKGSHISQGNEAEEREEPWDHTEKTEEEPVSGSSGSWDQSSQPVFENVNVKSFDRCTGHSAEHTQCGKPQSSQGIVEETSEEGNSVPASQSVAALTSKRSLVLMPESSAEEITVCPETQLSSSETFDLEREVSPGSRDILDGVRIIMADKEVGNKEDAEKEVAISTFSSSNQVSCPLCDQCFPPTKIERHAMYCNGLMEEDTVLTRRQKEAKTKSDSGTAAQTSLDIDKNEKCYLCKSLVPFREYQCHVDSCLQLAKADQGDGPEGSGRACSTVEGKWQQRLKNPKEKGHSEGRLLSFLEQSEHKTSDADIKSSETGAFRVPSPGMEEAGCSREMQSSFTRRDLNESPVKSFVSISEATDCLVDFKKQVTVQPGSRTRTKAGRGRRRKF
partner: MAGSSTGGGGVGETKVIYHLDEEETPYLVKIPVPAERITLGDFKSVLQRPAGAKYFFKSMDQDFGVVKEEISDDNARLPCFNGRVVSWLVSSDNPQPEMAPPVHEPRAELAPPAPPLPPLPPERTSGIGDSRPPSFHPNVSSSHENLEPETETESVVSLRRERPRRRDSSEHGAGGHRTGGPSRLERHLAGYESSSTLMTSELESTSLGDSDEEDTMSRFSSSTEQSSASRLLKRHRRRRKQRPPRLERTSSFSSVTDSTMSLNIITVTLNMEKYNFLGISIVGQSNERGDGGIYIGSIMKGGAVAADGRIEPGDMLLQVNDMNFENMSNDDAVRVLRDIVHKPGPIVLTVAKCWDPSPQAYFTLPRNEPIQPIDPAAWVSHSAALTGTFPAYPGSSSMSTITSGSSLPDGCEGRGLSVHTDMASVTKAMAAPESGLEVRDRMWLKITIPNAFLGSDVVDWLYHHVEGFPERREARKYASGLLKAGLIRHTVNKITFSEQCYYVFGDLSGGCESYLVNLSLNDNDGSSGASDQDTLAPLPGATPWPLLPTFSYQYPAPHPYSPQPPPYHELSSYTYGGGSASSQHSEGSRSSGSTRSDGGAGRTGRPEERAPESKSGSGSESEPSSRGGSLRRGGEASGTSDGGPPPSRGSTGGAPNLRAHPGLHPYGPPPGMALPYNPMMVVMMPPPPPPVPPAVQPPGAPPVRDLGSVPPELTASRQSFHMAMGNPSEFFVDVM
B4: Inactive peptidyl-prolyl cis-trans isomerase FKBP6 (Homo sapiens), O75344 (parent)
chain: MGGSALNQGVLEGDDAPGQSLYERLSQRMLDISGDRGVLKDVIREGAGDLVAPDASVLVKYSGYLEHMDRPFDSNYFRKTPRLMKLGEDITLWGMELGLLSMRRGELARFLFKPNYAYGTLGCPPLIPPNTTVLFEIELLDFLDCAESDKFCALSAEQQDQFPLQKVLKVAATEREFGNYLFRQNRFYDAKVRYKRALLLLRRRSAPPEEQHLVEAAKLPVLLNLSFTYLKLDRPTIALCYGEQALIIDQKNAKALFRCGQACLLLTEYQKARDFLVRAQKEQPFNHDINNELKKLASCYRDYVDKEKEMWHRMFAPCGDGSTAGES
partner: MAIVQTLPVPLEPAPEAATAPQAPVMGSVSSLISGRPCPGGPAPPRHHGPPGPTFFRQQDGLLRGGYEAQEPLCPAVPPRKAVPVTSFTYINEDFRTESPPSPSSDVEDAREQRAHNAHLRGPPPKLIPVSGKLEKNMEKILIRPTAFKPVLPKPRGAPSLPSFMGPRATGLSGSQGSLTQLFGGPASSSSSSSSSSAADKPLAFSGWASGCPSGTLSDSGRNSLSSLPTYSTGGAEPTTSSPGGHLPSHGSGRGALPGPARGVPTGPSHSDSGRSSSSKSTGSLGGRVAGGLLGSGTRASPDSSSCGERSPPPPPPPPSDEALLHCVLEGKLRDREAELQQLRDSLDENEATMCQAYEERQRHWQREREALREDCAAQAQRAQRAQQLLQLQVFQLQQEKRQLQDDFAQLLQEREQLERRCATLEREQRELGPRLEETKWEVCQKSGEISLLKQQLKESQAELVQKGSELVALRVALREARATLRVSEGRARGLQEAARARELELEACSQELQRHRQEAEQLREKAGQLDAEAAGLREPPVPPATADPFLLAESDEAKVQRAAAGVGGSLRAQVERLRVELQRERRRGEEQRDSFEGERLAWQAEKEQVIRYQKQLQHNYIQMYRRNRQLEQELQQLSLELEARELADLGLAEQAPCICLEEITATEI
B5: AP-4 complex subunit beta-1 (Homo sapiens), Q9Y6B7 (parent)
chain: MPYLGSEDVVKELKKALCNPHIQADRLRYRNVIQRVIRYMTQGLDMSGVFMEMVKASATVDIVQKKLVYLYMCTYAPLKPDLALLAINTLCKDCSDPNPMVRGLALRSMCSLRMPGVQEYIQQPILNGLRDKASYVRRVAVLGCAKMHNLHGDSEVDGALVNELYSLLRDQDPIVVVNCLRSLEEILKQEGGVVINKPIAHHLLNRMSKLDQWGQAEVLNFLLRYQPRSEEELFDILNLLDSFLKSSSPGVVMGATKLFLILAKMFPHVQTDVLVRVKGPLLAACSSESRELCFVALCHVRQILHSLPGHFSSHYKKFFCSYSEPHYIKLQKVEVLCELVNDENVQQVLEELRGYCTDVSADFAQAAIFAIGGIARTYTDQCVQILTELLGLRQEHITTVVVQTFRDLVWLCPQCTEAVCQALPGCEENIQDSEGKQALIWLLGVHGERIPNAPYVLEDFVENVKSETFPAVKMELLTALLRLFLSRPAECQDMLGRLLYYCIEEEKDMAVRDRGLFYYRLLLVGIDEVKRILCSPKSDPTLGLLEDPAERPVNSWASDFNTLVPVYGKAHWATISKCQGAERCDPELPKTSSFAASGPLIPEENKERVQELPDSGALMLVPNRQLTADYFEKTWLSLKVAHQQVLPWRGEFHPDTLQMALQVVNIQTIAMSRAGSRPWKAYLSAQDDTGCLFLTELLLEPGNSEMQISVKQNEARTETLNSFISVLETVIGTIEEIKS
partner: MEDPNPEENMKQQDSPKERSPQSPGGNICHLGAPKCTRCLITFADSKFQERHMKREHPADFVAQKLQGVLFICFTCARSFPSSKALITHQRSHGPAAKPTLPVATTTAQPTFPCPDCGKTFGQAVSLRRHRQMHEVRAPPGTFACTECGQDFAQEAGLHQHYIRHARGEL
B6: mRNA-decapping enzyme 1A (Homo sapiens), Q9NPI6 (parent)
chain: MEALSRAGQEMSLAALKQHDPYITSIADLTGQVALYTFCPKANQWEKTDIEGTLFVYRRSASPYHGFTIVNRLNMHNLVEPVNKDLEFQLHEPFLLYRNASLSIYSIWFYDKNDCHRIAKLMADVVEEETRRSQQAARDKQSPSQANGCSDHRPIDILEMLSRAKDEYERNQMGDSNISSPGLQPSTQLSNLGSTETLEEMPSGSQDKSAPSGHKHLTVEELFGTSLPKEQPAVVGLDSEEMERLPGDASQKEPNSFLPFPFEQLGGAPQSETLGVPSAAHHSVQPEITTPVLITPASITQSNEKHAPTYTIPLSPVLSPTLPAEAPTAQVPPSLPRNSTMMQAVKTTPRQRSPLLNQPVPELSHASLIANQSPFRAPLNVTNTAGTSLPSVDLLQKLRLTPQHDQIQTQPLGKGAMVASFSPAAGQLATPESFIEPPSKTAAARVAASASLSNMVLAPLQSMQQNQDPEVFVQPKVLSSAIPVAGAPLVTATTTAVSSVLLAPSVFQQTVTRSSDLERKASSPSPLTIGTPESQRKPSIILSKSQLQDTLIHLIKNDSSFLSTLHEVYLQVLTKNKDNHNL
B7: Protein BANP (Homo sapiens), Q8N9N5 (parent)
chain: MMSEHDLADVVQIAVEDLSPDHPVVLENHVVTDEDEPALKRQRLEINCQDPSIKTICLRLDSIEAKLQALEATCKSLEEKLDLVTNKQHSPIQVPMVAGSPLGATQTCNKVRCVVPQTTVILNNDRQNAIVAKMEDPLSNRAPDSLENVISNAVPGRRQNTIVVKVPGQEDSHHEDGESGSEASDSVSSCGQAGSQSIGSNVTLITLNSEEDYPNGTWLGDENNPEMRVRCAIIPSDMLHISTNCRTAEKMALTLLDYLFHREVQAVSNLSGQGKHGKKQLDPLTIYGIRCHLFYKFGITESDWYRIKQSIDSKCRTAWRRKQRGQSLAVKSFSRRTPNSSSYCPSEPMMSTPPPASELPQPQPQPQALHYALANAQQVQIHQIGEDGQVQVGHLHIAQVPQGEQVQITQDSEGNLQIHHVGQDGQLLEATRIPCLLAPSVFKASSGQVLQGAQLIAVASSDPAAAGVDGSPLQGSDIQVQYVQLAPVSDHTAGAQTAEALQPTLQPEMQLEHGAIQIQ
partner: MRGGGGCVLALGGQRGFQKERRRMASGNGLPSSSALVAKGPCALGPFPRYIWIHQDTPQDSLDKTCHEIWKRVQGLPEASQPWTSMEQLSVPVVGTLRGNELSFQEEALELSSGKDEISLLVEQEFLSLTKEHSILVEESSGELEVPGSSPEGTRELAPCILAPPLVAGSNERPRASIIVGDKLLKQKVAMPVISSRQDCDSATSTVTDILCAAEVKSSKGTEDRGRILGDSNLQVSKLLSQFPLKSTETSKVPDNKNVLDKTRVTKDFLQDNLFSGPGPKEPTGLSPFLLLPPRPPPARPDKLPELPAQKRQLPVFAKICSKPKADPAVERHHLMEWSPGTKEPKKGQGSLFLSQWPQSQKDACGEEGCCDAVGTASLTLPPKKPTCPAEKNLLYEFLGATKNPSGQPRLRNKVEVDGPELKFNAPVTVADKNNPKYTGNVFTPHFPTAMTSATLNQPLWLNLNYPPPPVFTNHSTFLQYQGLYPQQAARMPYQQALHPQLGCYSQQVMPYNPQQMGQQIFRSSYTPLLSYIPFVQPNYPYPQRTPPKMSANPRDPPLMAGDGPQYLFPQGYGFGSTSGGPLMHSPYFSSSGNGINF
B8: 14-3-3 protein theta (Homo sapiens), P27348 (parent)
chain: MEKTELIQKAKLAEQAERYDDMATCMKAVTEQGAELSNEERNLLSVAYKNVVGGRRSAWRVISSIEQKTDTSDKKLQLIKDYREKVESELRSICTTVLELLDKYLIANATNPESKVFYLKMKGDYFRYLAEVACGDDRKQTIDNSQGAYQEAFDISKKEMQPTHPIRLGLALNFSVFYYEILNNPELACTLAKTAFDEAIAELDTLNEDSYKDSTLIMQLLRDNLTLWTSDSAGEECDAAEGAEN

The variants in one test derive from B1. The settings on record: with cdn2d_human CDKN2D.
Turning to S52N, the “effect of a mutation on the interaction” value was “with no effect”.

The variants in another test derive from B2. Particulars: with kat7_human KAT7, O95251.
Sequence of kat7_human KAT7, O95251 (O95251 whole entry): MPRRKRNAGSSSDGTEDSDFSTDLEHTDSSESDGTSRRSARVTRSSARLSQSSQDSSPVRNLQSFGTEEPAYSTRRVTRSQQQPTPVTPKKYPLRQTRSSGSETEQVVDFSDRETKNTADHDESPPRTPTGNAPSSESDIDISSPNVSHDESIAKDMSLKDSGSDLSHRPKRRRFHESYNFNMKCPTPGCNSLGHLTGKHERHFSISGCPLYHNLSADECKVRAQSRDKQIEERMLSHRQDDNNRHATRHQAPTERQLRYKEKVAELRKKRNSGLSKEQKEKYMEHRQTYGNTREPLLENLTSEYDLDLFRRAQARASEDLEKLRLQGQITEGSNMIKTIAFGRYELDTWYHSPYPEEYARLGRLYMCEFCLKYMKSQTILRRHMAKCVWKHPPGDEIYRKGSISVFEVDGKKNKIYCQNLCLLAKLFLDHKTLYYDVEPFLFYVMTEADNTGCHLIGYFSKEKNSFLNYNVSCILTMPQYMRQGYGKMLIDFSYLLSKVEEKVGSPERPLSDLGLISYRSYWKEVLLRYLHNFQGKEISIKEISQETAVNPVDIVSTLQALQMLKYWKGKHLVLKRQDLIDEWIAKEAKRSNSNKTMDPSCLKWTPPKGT
With R216T, the “effect of a mutation on the interaction” value was “with no effect”.

The variants in a further test derive from B3. The settings on record: with dvl2_human DVL2, O14641.
Take G48E: the “effect of a mutation on the interaction” value is “with no effect”.

A further test covers variants of B4. Particulars: with lzts2_human LZTS2, Q9BRK4.
With R175Q, the “effect of a mutation on the interaction” value is on record as “with no effect”. Same read-out and setting: next, H287N: “with no effect”.

In the next test the parent is B5. Particulars: with zn576_human ZNF576, Q9H609.
As for L480S, the “effect of a mutation on the interaction” value was “with no effect”.

Variants of B6 are the subject of the next test. Particulars: with pnrc2_human PNRC2, Q9NPJ4.
Sequence of pnrc2_human PNRC2, Q9NPJ4 (Q9NPJ4 whole entry): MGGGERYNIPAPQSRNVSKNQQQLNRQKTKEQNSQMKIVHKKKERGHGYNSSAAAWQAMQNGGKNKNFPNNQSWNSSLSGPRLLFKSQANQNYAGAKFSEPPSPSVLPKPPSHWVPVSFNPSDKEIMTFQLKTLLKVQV
Take P332T: the “effect of a mutation on the interaction” value is listed as “with no effect”. In the case of A297G, the “effect of a mutation on the interaction” value is listed as “with no effect”. Still for that read-out and setting: next, Q474H: “with no effect”.

A further test covers variants of B7. Particulars: with ca094_human C1orf94, Q6P1W5.
As to P348S, the “effect of a mutation on the interaction” value was “with no effect”.

The variants in a further test derive from B8. Particulars: with tri42_human TRIM42, Q8IWZ5.
Sequence of tri42_human TRIM42, Q8IWZ5 (Q8IWZ5 whole entry): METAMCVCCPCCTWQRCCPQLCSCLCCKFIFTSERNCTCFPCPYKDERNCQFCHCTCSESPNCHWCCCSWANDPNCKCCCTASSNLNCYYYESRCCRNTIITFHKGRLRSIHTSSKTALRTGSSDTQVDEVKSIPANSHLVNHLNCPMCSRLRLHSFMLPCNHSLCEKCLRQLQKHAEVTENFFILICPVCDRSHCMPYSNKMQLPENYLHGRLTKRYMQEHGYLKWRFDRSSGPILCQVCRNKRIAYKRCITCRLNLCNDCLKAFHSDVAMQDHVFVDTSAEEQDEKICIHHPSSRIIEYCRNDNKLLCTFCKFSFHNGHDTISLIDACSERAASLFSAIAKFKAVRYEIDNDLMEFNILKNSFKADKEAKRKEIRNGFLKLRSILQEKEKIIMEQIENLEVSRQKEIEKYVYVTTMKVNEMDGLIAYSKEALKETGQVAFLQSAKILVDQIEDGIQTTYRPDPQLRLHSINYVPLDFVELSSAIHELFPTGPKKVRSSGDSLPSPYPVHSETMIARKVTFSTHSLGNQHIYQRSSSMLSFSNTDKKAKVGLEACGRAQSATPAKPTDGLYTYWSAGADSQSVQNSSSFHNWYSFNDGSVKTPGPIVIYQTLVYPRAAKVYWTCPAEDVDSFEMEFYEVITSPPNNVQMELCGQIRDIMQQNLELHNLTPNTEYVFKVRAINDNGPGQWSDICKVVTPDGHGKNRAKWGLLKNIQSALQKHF
Regarding A152S, the “effect of a mutation on the interaction” value is given as “with no effect”.
